In US9637538:

Experiments:
[1] = molecular target: HLA class II antigens (HLA-DR, HLA-DQ and HLA-DP); test: Luminex, Labscreen Mixed, each of the 5 class II bead types, antibody at 2 µg/ml
[2] = molecular target: HLA class II antigens (HLA-DR, HLA-DQ and HLA-DP); test: Luminex dose/response, average over 5 class II bead types, antibody at 2 × 10^0 µg/ml
[3] = molecular target: HLA class II antigens (HLA-DR, HLA-DQ and HLA-DP); test: Luminex dose/response, average over 5 class II bead types, antibody at 2 × 10^-3 µg/ml
[4] = molecular target: HLA class II antigens (HLA-DR, HLA-DQ and HLA-DP); test: Luminex dose/response, average over 5 class II bead types, antibody at 5 × 10^-1 µg/ml
[5] = molecular target: HLA class II antigens (HLA-DR, HLA-DQ and HLA-DP); test: Luminex dose/response, average over 5 class II bead types, antibody at 5 × 10^-4 µg/ml
[6] = molecular target: HLA class II antigens (HLA-DR, HLA-DQ and HLA-DP); test: Luminex dose/response, average over 5 class II bead types, antibody at 7.8 × 10^-3 µg/ml
[7] = molecular target: HLA class II antigens (HLA-DR, HLA-DQ and HLA-DP); test: Luminex dose/response, average over 5 class II bead types, antibody at 1.25 × 10^-1 µg/ml
[8] = molecular target: HLA class II antigens (HLA-DR, HLA-DQ and HLA-DP); test: Luminex dose/response, average over 5 class II bead types, antibody at 3.13 × 10^-2 µg/ml
[9] = molecular target: HLA class II antigens (HLA-DR, HLA-DQ and HLA-DP); test: Boltzmann sigmoid fit of the Luminex titration curve; asymptote at infinite concentration
[10] = molecular target: HLA class II antigens (HLA-DR, HLA-DQ and HLA-DP); test: Boltzmann sigmoid fit of the Luminex titration curve; asymptote as the concentration tends to 0
[11] = molecular target: HLA class II antigens (HLA-DR, HLA-DQ and HLA-DP); test: Boltzmann sigmoid fit of the Luminex titration curve; concentration at 50% of the specific signal (MAX-MIN)

B1: monoclonal chimeric immunoglobulin Hu-IgG1 K [F3.3] (antibody, V domains shown)
VH: EVKLEESGGGLVQPGGSMKLSCVASGFTFSNSWMNWVRQSPEKGLEWVAEIRLKSNNYATRYAESVKGRFTISRDDSKSSVYLQMNNLRSEDTAIYYCTPLSYSFDYWGQGTTVTVST
VL: QIVLTQSPAIMSASPGEKVTMTCSASSIVRYMYWFQQKPGSSPRLLIYDTSSLSSGVPVRFSGSGSGTSYSLTISRMEAEDAATYFCQQWSSYPLTFGGGTKLEIKR
Work on B1 yielded a fluorescence (average fluorescence units) [1] of 22000, an Average fluorescence intensity (fluorescence intensity) [2] of 23600 and an Average fluorescence intensity (fluorescence intensity) [3] of 1090. The Average fluorescence intensity (fluorescence intensity) [4] was 22800, the Average fluorescence intensity (fluorescence intensity) [5] was 316 and the Average fluorescence intensity (fluorescence intensity) [6] was 3520. For the same binder, the Average fluorescence intensity (fluorescence intensity) [7] was 18000, the Average fluorescence intensity (fluorescence intensity) [8] was 9130 and the MAX [9] was 24600 fluorescence. It also gave an MIN [10] of 88 fluorescence and an EC50 [11] of 0.05 µg/mL.
